Source: patent US20160032013A1 (Genentech, published 2016)

Target: T1, Mouse RON-hIgG1 Fc (murine RON Sema/PSI/IPT1, natural leader + R33-V684, fused to human IgG1 Fc) (mouse)
T1 construct: also called mRON-hFc; murine RON-Fc
Test: SPR (Biacore), anti-Fc chip; legend names murine RON-Fc; the sheet's scheme ('RON or MSP' over 'MSP-Fc or RON-Fc') and have the MSPβ-Fc fusion captured and soluble RON-His injected
Procedure: Binding kinetics of RON to MSP β-Fc fusion proteins and MSP proteins to RON-Fc fusions were determined using a Biacore 3000 optical biosensor equipped with a research-grade CM5 sensor chip (GE Healthcare). Amine coupling reagents, N-ethyl-N′-dimethylamino-propylcarbodiimide (EDC), N-hydroxy-succinimide (NHS) and sodium ethanolamine HCl, pH 8.5, were obtained from GE Healthcare. Standard coupling protocols were used to tether a rabbit anti-human IgG1 or rabbit anti-murine IgG2a (Jackson ImmunoResearch Laboratories) onto the biosensor surface. A biosensor chip that was subjected to the amine coupling procedure with no protein coupled was used to correct for non-specific binding. […] Various concentrations (500-3.9 nM, 2-fold dilution series) of RON-His, were injected in HBS-P buffer (10 mM HEPES, pH 7.5, 150 mM NaCl, 0.005% P20) at 25° C. with a flow rate of 30 μL/min and dissociation monitored for 240 sec. Between measurements, the biosensor surfaces were regenerated with a 120 s pulse of 10 mM glycine-HCl pH 1.5 followed by a 120 s wash with running buffer.

T1 sequence (chain, as listed by the source limits assumed): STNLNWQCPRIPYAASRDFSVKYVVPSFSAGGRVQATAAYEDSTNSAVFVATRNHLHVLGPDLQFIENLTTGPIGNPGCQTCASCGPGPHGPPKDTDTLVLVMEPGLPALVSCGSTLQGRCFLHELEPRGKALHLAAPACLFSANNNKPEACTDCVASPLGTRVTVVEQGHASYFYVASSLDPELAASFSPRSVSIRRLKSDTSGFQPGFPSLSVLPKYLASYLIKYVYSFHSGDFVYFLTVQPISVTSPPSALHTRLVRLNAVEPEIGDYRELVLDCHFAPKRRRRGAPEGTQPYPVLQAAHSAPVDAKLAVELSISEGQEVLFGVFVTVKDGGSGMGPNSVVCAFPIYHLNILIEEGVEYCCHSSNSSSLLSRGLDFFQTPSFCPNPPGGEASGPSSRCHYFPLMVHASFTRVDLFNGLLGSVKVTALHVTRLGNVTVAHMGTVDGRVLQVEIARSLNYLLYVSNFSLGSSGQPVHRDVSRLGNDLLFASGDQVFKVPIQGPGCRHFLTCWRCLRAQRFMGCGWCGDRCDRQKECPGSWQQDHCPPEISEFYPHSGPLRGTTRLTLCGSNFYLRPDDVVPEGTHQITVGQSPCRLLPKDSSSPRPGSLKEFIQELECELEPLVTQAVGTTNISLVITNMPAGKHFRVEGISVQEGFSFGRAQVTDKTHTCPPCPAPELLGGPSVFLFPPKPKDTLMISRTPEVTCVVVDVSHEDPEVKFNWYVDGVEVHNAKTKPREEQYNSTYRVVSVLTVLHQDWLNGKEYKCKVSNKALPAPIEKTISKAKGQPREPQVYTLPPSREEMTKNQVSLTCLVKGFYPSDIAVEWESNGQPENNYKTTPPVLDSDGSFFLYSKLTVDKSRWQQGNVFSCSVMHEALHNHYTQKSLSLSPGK

Kd [nM]	Binder
5	m.L8.m DANA (Fc fusion, As m8m, with the DANA mutations in the Fc; also called m8m (DANA); Mouse MSP β-L8-mIgG2a Fc (DANA)) MSP β-linker-Fc fusion chain: VVGGHPGNSPWTVSLRNRQGQHFCGGSLVKEQWVLTARQCIWSCHEPLTGYEVWLGTINQNPQPGEANLQRVPVAKAVCGPAGSQLVLLKLERPVILNHHVALIALPPEQYVVPPGTKCEIAGWGESIGTSNNTVLHVASMNVISNQECNTKYRGHIQESEICTQGLVVPVGACEGDYGGPLACYTHDAWVLQGLIIPNRVCARPRWPAIFTRVSVFVDWINKVMQLEPRGPTIKPCPPCKCPAPNLLGGPSVFIFPPKIKDVLMISLSPIVTCVVVAVSEDDPDVQISWFVNNVEVHTAQTQTHREDYASTLRVVSALPIQHQDWMSGKEFKCKVNNKDLPAPIERTISKPKGSVRAPQVYVLPPPEEEMTKKQVTLTCMVTDFMPEDIYVEWTNNGKTELNYKNTEPVLDSDGSYFMYSKLRVEKKNWVERNSYSCSVVHEGLHNHHTTKSFSRTPGK
6.6	m.L16.m DANA (Fc fusion, As m16m, with the DANA mutations in the Fc; also called m16m (DANA); Mouse MSP β-L16-mIgG2a Fc (DANA)) MSP β-linker-Fc fusion chain: VVGGHPGNSPWTVSLRNRQGQHFCGGSLVKEQWVLTARQCIWSCHEPLTGYEVWLGTINQNPQPGEANLQRVPVAKAVCGPAGSQLVLLKLERPVILNHHVALIALPPEQYVVPPGTKCEIAGWGESIGTSNNTVLHVASMNVISNQECNTKYRGHIQESEICTQGLVVPVGACEGDYGGPLACYTHDAWVLQGLIIPNRVCARPRWPAIFTRVSVFVDWINKVMQLEQVTDKKIEPRGPTIKPCPPCKCPAPNLLGGPSVFIFPPKIKDVLMISLSPIVTCVVVAVSEDDPDVQISWFVNNVEVHTAQTQTHREDYASTLRVVSALPIQHQDWMSGKEFKCKVNNKDLPAPIERTISKPKGSVRAPQVYVLPPPEEEMTKKQVTLTCMVTDFMPEDIYVEWTNNGKTELNYKNTEPVLDSDGSYFMYSKLRVEKKNWVERNSYSCSVVHEGLHNHHTTKSFSRTPGK
11.6	h.L16.m (Fc fusion, Human MSP β joined by a 16-residue linker to murine IgG2a Fc; also called h16m; Human MSP β-L16-mIgG2a Fc) MSP β-linker-Fc fusion chain: VVGGHPGNSPWTVSLRNRQGQHFCGGSLVKEQWILTARQCFSSCHMPLTGYEVWLGTLFQNPQHGEPSLQRVPVAKMVCGPSGSQLVLLKLERSVTLNQRVALISLPPEWYVVPPGTKCEIAGWGETKGTGNDTVLNVALLNVISNQECNIKHRGRVRESEMCTEGLLAPVGACEGDYGGPLACFTHNAWVLEGIIIPNRVCARSRWPAVFTRVSVFVDWIHKVMRLGQVTDKKIEPRGPTIKPCPPCKCPAPNLLGGPSVFIFPPKIKDVLMISLSPIVTCVVVDVSEDDPDVQISWFVNNVEVHTAQTQTHREDYNSTLRVVSALPIQHQDWMSGKEFKCKVNNKDLPAPIERTISKPKGSVRAPQVYVLPPPEEEMTKKQVTLTCMVTDFMPEDIYVEWTNNGKTELNYKNTEPVLDSDGSYFMYSKLRVEKKNWVERNSYSCSVVHEGLHNHHTTKSFSRTPGK
13.8	m.L4.m DANA (Fc fusion, As m4m, with the DANA mutations in the Fc; also called m4m (DANA); Mouse MSP β-L4-mIgG2a Fc (DANA)) MSP β-linker-Fc fusion chain: VVGGHPGNSPWTVSLRNRQGQHFCGGSLVKEQWVLTARQCIWSCHEPLTGYEVWLGTINQNPQPGEANLQRVPVAKAVCGPAGSQLVLLKLERPVILNHHVALIALPPEQYVVPPGTKCEIAGWGESIGTSNNTVLHVASMNVISNQECNTKYRGHIQESEICTQGLVVPVGACEGDYGGPLACYTHDAWVLQGLIIPNRVCARPRWPAIFTRVSVFVDWINKVMQLETIKPCPPCKCPAPNLLGGPSVFIFPPKIKDVLMISLSPIVTCVVVAVSEDDPDVQISWFVNNVEVHTAQTQTHREDYASTLRVVSALPIQHQDWMSGKEFKCKVNNKDLPAPIERTISKPKGSVRAPQVYVLPPPEEEMTKKQVTLTCMVTDFMPEDIYVEWTNNGKTELNYKNTEPVLDSDGSYFMYSKLRVEKKNWVERNSYSCSVVHEGLHNHHTTKSFSRTPGK
9.7	m.L12.m DANA (Fc fusion, As m12m, with the DANA mutations in the Fc; also called m12m (DANA); Mouse MSP β-L12-mIgG2a Fc (DANA)) MSP β-linker-Fc fusion chain: VVGGHPGNSPWTVSLRNRQGQHFCGGSLVKEQWVLTARQCIWSCHEPLTGYEVWLGTINQNPQPGEANLQRVPVAKAVCGPAGSQLVLLKLERPVILNHHVALIALPPEQYVVPPGTKCEIAGWGESIGTSNNTVLHVASMNVISNQECNTKYRGHIQESEICTQGLVVPVGACEGDYGGPLACYTHDAWVLQGLIIPNRVCARPRWPAIFTRVSVFVDWINKVMQLEKKIEPRGPTIKPCPPCKCPAPNLLGGPSVFIFPPKIKDVLMISLSPIVTCVVVAVSEDDPDVQISWFVNNVEVHTAQTQTHREDYASTLRVVSALPIQHQDWMSGKEFKCKVNNKDLPAPIERTISKPKGSVRAPQVYVLPPPEEEMTKKQVTLTCMVTDFMPEDIYVEWTNNGKTELNYKNTEPVLDSDGSYFMYSKLRVEKKNWVERNSYSCSVVHEGLHNHHTTKSFSRTPGK
